Test system: thrombin-cleavable lipopeptide conjugate (TCP-stearate)

thrombin
MALDI-TOF mass spectroscopy of TCP-stearate before and after exposure to thrombin (30 minutes, 250 nM): thrombin could efficiently cleave the conjugate, evidenced by the fact that after thrombin exposure very little of the TCP-stearate conjugate remains (peak at 1046 m/z), whereas 2 new degradation peaks appear (495 and 534 m/z)
